Data published in US20200277359A1.

Target: Recombinant CHIKV E2 ectodomain protein (corresponding to the CHIKV-LR2006 strain) (Chikungunya virus strain LR2006)
Assay: ELISA on coated E2 ectodomain

murine CHK-152 (antibody)
OD450: < 0.1 od
